± gives the uncertainty stated by the source.

Experimental findings from the supplement of paper PMC12042874 are described below.

This series in a line: amyloid nucleation score (Sup35N fusion, yeast selection) (log enrichment); library NNK1; higher = more nucleation; inactive = no reads after selection. Put shortly:
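The nucleation score, computed with DiMSum, is the log enrichment of output over input reads, centred on the mode score of non-aggregating sequences. Sequences with under 100 input reads were dropped. Reads were generated by Illumina sequencing of plasmid inserts from psi-negative yeast with Sup35N fused to peptides of 20 random codons, induced with 100 μM copper sulfate for 24 hours and grown 7 days at 30°C on medium lacking adenine and uracil.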
On to ISECDICERR, for which the amyloid nucleation score is -0.236 ± 0.68.
In the case of ISEGVIRDMSNRVRGSMQEI, the amyloid nucleation score was -0.175 ± 1.2.
The figure for ISGFMLQVLTRRYSWMSA is -0.498 ± 0.88; for ISGYQS it is 0.088 ± 0.64; for ISIIVVKFDMLLSNHHNSDA it is 0.486 ± 0.58.
The figure for ISKNLNRMHILVLYMVGMRF is 0.259 ± 0.88; for ISLPLTPN it is -0.492 ± 0.36.
For the substance ISLRYFPNYISFHKLGFRSA, the amyloid nucleation score turned out to be 0.523 ± 0.39.
For ISNCYQVKALFVSHFLIRDR, the amyloid nucleation score was 4.29 ± 0.047.
The figure for ISPYPPRHLLQWVCKGE is 0.034 ± 0.68.
Take ISQKNDAMNYYIGMSQM: the amyloid nucleation score turned out to be 1.52 ± 0.34.
Under ISRADVWVWFLLSMSRREYF stands 0.268 ± 0.55; under ITKNRPARNRLLRTGMYFLL, 0.004 ± 0.29.
Under ITKSRLWHDWLTRRVMTTDC stands -0.241 ± 1.4; under ITVGEYVNHCSG, 0.224 ± 1.4.
Substance IVAVDFGLFRMRTIPRAAVS came in with an amyloid nucleation score of -0.144 ± 1.6.
The figure for IVDVVLSMGLLYLTSVNY is -0.369 ± 0.74.
Substance IVLMLCV had an amyloid nucleation score of -0.097 ± 0.36.
For the substance IVMFVGFCGENKLAWDSRRK, the amyloid nucleation score stood at 5.03 ± 0.05.
As to IVNAGICPGNSRYSGNGATR, the amyloid nucleation score was -0.162 ± 0.53.
For IVNNIVCSAGVDPFSQHCMD, the amyloid nucleation score amounted to 1.84 ± 0.67.
Consider IVRVLCSLLIQFKVNAY, for which the amyloid nucleation score result is “inactive”.
The figure for IVVFFAPDFCGRQLYDKSKS is 4.85 ± 0.11; for IVWVDLNRIGSCAGLGINYY it is 0.18 ± 0.41.
Under IWCNMSFNIRV stands 4.4 ± 0.088; under IWIMWGYRSLDTMLHS, 0.047 ± 0.77; under IWLRS, 0.779 ± 0.62.
Substance IYCVGDFVP returned an amyloid nucleation score of -0.026 ± 0.35.
For IYEILKVTS, the amyloid nucleation score result was “inactive”.
The substance IYFHLGGCI displayed an amyloid nucleation score of -0.376 ± 0.42.
Substance IYFQVSRLMSVRRAMKSPKP showed an amyloid nucleation score of -0.666 ± 1.4.
The figure for IYLCCADFARIVMVTSTRWL is 0.052 ± 0.5; for IYLLLCLENRVDMLE it is “inactive”; for IYPILVMSASQA it is 0.549 ± 0.69.
The substance IYSARFIGVRPNYYCMDARP returned an amyloid nucleation score of -0.85 ± 0.88.
On to IYTSLCQRGGMVMHESKYCC, for which the amyloid nucleation score turned out to be 0.624 ± 0.65.
In the case of IYVYWSDISV, the amyloid nucleation score is 0.907 ± 0.42.
KAFWSLCYVERGRWYGAVNA: the amyloid nucleation score is 0.128 ± 1.
The figure for KAHRWDGRIFN is -1.27 ± 0.55; for KAKTFI it is 0.268 ± 1.2; for KALVADC it is 0.001 ± 0.34.
The figure for KAVRMSNFD is 0.223 ± 0.71; for KCMFVESKSRDNCVMSNES it is -0.055 ± 0.9.
KCRGCSMMRAS displayed an amyloid nucleation score of 1.84 ± 0.5.
Substance KCSSLLSHMWLCITLVTVLA displayed an amyloid nucleation score of 0.357 ± 0.57.
Substance KCTCSVKCSCIFCFIICCVC had an amyloid nucleation score of -1.2 ± 1.7.
The figure for KDCCMLDIYVEAWSGSFGRK is 1.44 ± 0.2; for KDSGYMCWMGDLCVWSP it is 5.97 ± 0.097.
Under KEFMRWHQTPRFVKKTHVRG stands -0.834 ± 1.4.
KELFLMPDGEPFMG yielded an amyloid nucleation score of 0.079 ± 0.61.
Under KFGDPSRAAILNMSGSISDK stands -0.189 ± 0.46.
KFIFVGNGECMRPGCSDDSL registered an amyloid nucleation score of 1.99 ± 0.38.
As for KFIVVS, the amyloid nucleation score came out at 0.507 ± 0.62.
Regarding KFSFCKS, the amyloid nucleation score came to 0.207 ± 0.31.
In the case of KFSNWTDV, the amyloid nucleation score is -0.164 ± 1.1.
For the substance KGLIKDNCNTSGGEFNCGY, the amyloid nucleation score was -0.278 ± 0.21.
With KGQFF, the amyloid nucleation score is 0.835 ± 0.75.
For the substance KGRSCLGRLRLVGQMRPKYN, the amyloid nucleation score turned out to be 0.366 ± 0.76.
On to KHSNLYIFPGVYFFQITSLY, for which the amyloid nucleation score is 3.96 ± 0.088.
As to KHYIKRASDGHAFSYVHLSL, the amyloid nucleation score stood at 0.068 ± 0.38.
For the substance KIGLNCFE, the amyloid nucleation score result was “inactive”.
The figure for KILTVHPSHNDPC is -1.32 ± 1.9; for KITWDLF it is 0.759 ± 0.52; for KKALTALM it is 0.822 ± 0.98.
Substance KKKYTEHISFTALHKLFTRR gave an amyloid nucleation score of 0.189 ± 0.92.
With KKRICFMSLSQRWRSRTTCW, the amyloid nucleation score is 0.164 ± 0.3.
The figure for KKVGRHFDLCALDRTQSGCW is -0.162 ± 0.39.
Consider KLAIYFILAACSRNVVED, for which the amyloid nucleation score worked out at 0.768 ± 0.36.
Take KLEMARAIKFFGYDTLETAF: the amyloid nucleation score was found to be 1.1 ± 0.71.
KLLPSKLCNASRFSFFYKES registered an amyloid nucleation score of -0.82 ± 0.81.
The entry for KLLSGRLDTFSGGGDYMCPV is “inactive”; for KLSGCMISKILFSPCWRD it is 5.896 ± 0.058.
KLSVGLRYCRPATRTSAHVM registered an amyloid nucleation score of 0.271 ± 0.35.
For KLVIETSPCVRSHVSLVQKR, the amyloid nucleation score was -0.277 ± 0.26.
As for KLYPFL, the amyloid nucleation score stood at 0.565 ± 0.32.
Under KMATRINGWCDGASATTV stands -0.154 ± 0.74; under KMFTGNSEFFCFLTTVKLDR, -0.068 ± 0.61.
In turn, KNFHELTVDYVCVLYREQLF displayed an amyloid nucleation score of 0.115 ± 0.26.
Substance KNKPL yielded an amyloid nucleation score of 2.72 ± 0.15.
KNLGTRGHSMY came in with an amyloid nucleation score of -0.164 ± 0.31.
Substance KNLKW displayed an amyloid nucleation score of 0.476 ± 0.97.
With KNLVWMDRVQFRLSWAHVRL, the amyloid nucleation score was -1.38 ± 2.4.
Substance KNNIDIAFAV gave an amyloid nucleation score of -0.065 ± 0.98.
For the substance KNSIYSCVTRTFSPMVLRYC, the amyloid nucleation score was 0.557 ± 0.54.
Substance KNYLLSLGVCNFQSYPHKCW registered an amyloid nucleation score of 4.22 ± 0.16.
In turn, KPDSMFDFER showed an amyloid nucleation score of -0.675 ± 1.3.
In turn, KPLEDFVDYKMMLMIHEEVC displayed an amyloid nucleation score of 0.763 ± 0.97.
Take KPTLGVILTTTTFTRSCLYY: the amyloid nucleation score is -0.252 ± 0.73.
The figure for KRDLPTQTTDNLACSWAPTQ is -0.884 ± 2.4.
KRHVSGKVQMGWGVRRRPV registered an amyloid nucleation score of 0.178 ± 0.72.
Turning to KRLDVKMVLPEVRFRLDVSL, the amyloid nucleation score amounted to 0.732 ± 0.27.
The substance KRNRYTKGTHHTSFMNFYFC showed an amyloid nucleation score of 8.37 ± 0.066.
KRPHGDH had an amyloid nucleation score of 0.416 ± 0.73.
The figure for KSCDSESFYGDTRSFHTDSV is -1.5 ± 1.3.
On to KSDNVVTRLRLLSAEVQW, for which the amyloid nucleation score was -0.295 ± 0.98.
In turn, KSKIQDLCCPSRPVVGMVCL registered an amyloid nucleation score of 0.239 ± 0.43.
KSQKG: the amyloid nucleation score stood at 0.008 ± 0.36.
With KSRAGMNKACTQLYPLV, the amyloid nucleation score is -0.215 ± 0.34.
Take KSRWHMLLNS: the amyloid nucleation score was determined as 0.051 ± 0.72.
The substance KSVDFTYDEGRSTAVIVYHF came in with an amyloid nucleation score of 0.223 ± 0.29.
As to KSVFIYLGMISLVG, the amyloid nucleation score turned out to be 0.352 ± 0.88.
The figure for KSVVSFMTFPSLQEHKVVLI is 0.33 ± 0.53; for KTCYTVFSRPYENWS it is 0.625 ± 0.48.
On to KTTCIDTIR, for which the amyloid nucleation score came out at 0.565 ± 0.43.
As for KVCTHYSTHRWLSSQPSKVV, the amyloid nucleation score is -0.696 ± 1.9.
The substance KVEWVSDTRVNLLGTFVLKA returned an amyloid nucleation score of 1.18 ± 0.43.
The substance KVFLRMQRSSGTVKCKSQTE displayed an amyloid nucleation score of -0.065 ± 0.41.
KVFWLYPMNLS: the amyloid nucleation score worked out at 0.278 ± 0.65.
As to KVIFQVYYI, the amyloid nucleation score was found to be 7.46 ± 0.047.
KVIRAGHDVVPRTYRRRSRR showed an amyloid nucleation score of 1.29 ± 0.58.
Take KVKRFDGCSSRSKHVVTEI: the amyloid nucleation score was 4.13 ± 0.076.
KVLGQGYERMDLFIVVFR came in with an amyloid nucleation score of -0.357 ± 0.59.
KVLGWNMGVHFNHGGRSFVM gave an amyloid nucleation score of 0.461 ± 0.54.
With KVLILCAT, the amyloid nucleation score turned out to be 1.1 ± 0.62.
In turn, KVPKRKITNFRGMSGFSRYR displayed an amyloid nucleation score of 0.985 ± 0.98.
The substance KVQYLFCNYLIKSYMMVQCN gave an amyloid nucleation score of 0.477 ± 0.39.
In turn, KVSVRYSNYSCVYFVYCRW came in with an amyloid nucleation score of 0.279 ± 0.27.
The substance KVVKCS gave an amyloid nucleation score of -0.97 ± 0.3.
The substance KVVSGA returned an amyloid nucleation score of 0.879 ± 0.53.
With KVWSLKLSFGSLNMPMGYV, the amyloid nucleation score was found to be 0.399 ± 0.26.
KVYTWVPPTMNYRMNLFIVR returned an amyloid nucleation score of 0.036 ± 0.19.
Turning to KWVHEIRSSMVCVYLAGNSR, the amyloid nucleation score was 0.677 ± 0.79.
KYASVGASFVWC yielded an amyloid nucleation score of 0.102 ± 0.34.
For the substance KYHRFFAG, the amyloid nucleation score was -1.02 ± 1.8.
KYPYLYLPIRMLNRQHARVG registered an amyloid nucleation score of 0.449 ± 0.62.
In turn, KYSEDLIRQEDVVRYMGTMS had an amyloid nucleation score of -0.056 ± 0.24.
Under LADGLTVRSKYYISVNSVGS stands -0.16 ± 0.4; under LAELWECDKSLKSPGAYWVL, 1.49 ± 0.73.
Substance LAEVQRKTR yielded an amyloid nucleation score of -0.291 ± 0.59.
Under LAFGFTSWS stands 0.49 ± 0.38; under LAIDNDSWFVETNYNFKFDV, -0.438 ± 0.57; under LAITDKPNANARRPPTPVLY, 0.623 ± 0.51.
Under LAKATGHVVCMSRVRRPVGQ stands “inactive”; under LAREAGR, “inactive”.
Substance LASLDLCVISLMNNHVDRTD showed an amyloid nucleation score of 0.94 ± 0.29.
The figure for LASTVSDWN is 0.32 ± 0.39.
Under LAVERGHCIQVRGLKCLIES stands 1.66 ± 0.47; under LCALSEVLVLCDSY, 0.29 ± 0.96; under LCAMIPAVGRYWSCVVGHSV, -0.013 ± 1.6.
The figure for LCDYKRPCMTMYNHHELLII is 0.005 ± 0.47; for LCEMLF it is -0.202 ± 0.61; for LCGSGGLMCRQGHYAEMGGC it is -0.287 ± 1.1.
As to LCIMF, the amyloid nucleation score is -0.446 ± 0.69.
